The values below come from publication PMC4506499.

The target in assay [1] is T1, Human Upf1-CH-HD (115-914 amino acids) (human) (UniProt Q92900).
T1 sequence: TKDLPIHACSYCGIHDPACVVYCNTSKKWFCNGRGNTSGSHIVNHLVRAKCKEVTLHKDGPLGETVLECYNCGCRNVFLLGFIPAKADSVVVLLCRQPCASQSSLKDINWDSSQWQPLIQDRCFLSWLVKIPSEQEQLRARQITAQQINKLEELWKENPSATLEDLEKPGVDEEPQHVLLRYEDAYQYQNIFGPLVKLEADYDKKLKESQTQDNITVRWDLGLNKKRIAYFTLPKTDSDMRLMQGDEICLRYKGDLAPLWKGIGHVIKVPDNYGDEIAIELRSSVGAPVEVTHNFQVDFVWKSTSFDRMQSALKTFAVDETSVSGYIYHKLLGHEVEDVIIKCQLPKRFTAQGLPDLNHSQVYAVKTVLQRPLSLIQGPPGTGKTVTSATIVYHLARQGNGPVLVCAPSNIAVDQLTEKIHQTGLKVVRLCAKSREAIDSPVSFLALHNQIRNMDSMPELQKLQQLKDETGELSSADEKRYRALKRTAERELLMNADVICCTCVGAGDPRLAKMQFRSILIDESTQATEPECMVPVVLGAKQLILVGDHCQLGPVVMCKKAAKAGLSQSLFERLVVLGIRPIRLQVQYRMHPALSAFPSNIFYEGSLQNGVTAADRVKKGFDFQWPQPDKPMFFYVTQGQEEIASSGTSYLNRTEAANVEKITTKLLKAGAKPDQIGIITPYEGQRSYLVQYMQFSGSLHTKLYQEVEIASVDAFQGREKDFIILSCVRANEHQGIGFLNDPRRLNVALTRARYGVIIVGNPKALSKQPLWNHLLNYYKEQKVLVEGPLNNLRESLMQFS

The target in assay [2] is T1, Human Upf1-CH-HD (115-914 amino acids) (human). This is another data set of the same source.
For assay [3] the target is unchanged. The source holds these as a separate data set.

On to “Human Upf2 (761-1227 amino acids) (from UniProt Q9HAU5 761-1227) (domain or fragment)”, for which the activity ratio Ac=u/(u+b) (unwinding events over unwinding plus binding events), magnetic tweezers on a DNA hairpin; Upf1-CH-HD alone Ac=49% in assay [1] was 81%. Moreover, the processivity factor fp (enzymes reaching the hairpin apex over total bursts), magnetic tweezers on the 1.2 kb DNA hairpin (fraction (24 of 25 bursts)) in assay [2] was 0.96. In assay [3], this substance gave a share of Upf1-CH-HD/Upf2 binding events with a normal rising edge but a falling edge interrupted by blocking (magnetic tweezers, DNA hairpin) of 76%.
